The text below walks through data of article PMC9897490.

For this assay, the target named is FtsZ (wild type, Caulobacter crescentus) (Caulobacter crescentus). Briefly: BLI.
Sequence of FtsZ (wild type, Caulobacter crescentus) (Caulobacter crescentus) (B8H080 whole entry): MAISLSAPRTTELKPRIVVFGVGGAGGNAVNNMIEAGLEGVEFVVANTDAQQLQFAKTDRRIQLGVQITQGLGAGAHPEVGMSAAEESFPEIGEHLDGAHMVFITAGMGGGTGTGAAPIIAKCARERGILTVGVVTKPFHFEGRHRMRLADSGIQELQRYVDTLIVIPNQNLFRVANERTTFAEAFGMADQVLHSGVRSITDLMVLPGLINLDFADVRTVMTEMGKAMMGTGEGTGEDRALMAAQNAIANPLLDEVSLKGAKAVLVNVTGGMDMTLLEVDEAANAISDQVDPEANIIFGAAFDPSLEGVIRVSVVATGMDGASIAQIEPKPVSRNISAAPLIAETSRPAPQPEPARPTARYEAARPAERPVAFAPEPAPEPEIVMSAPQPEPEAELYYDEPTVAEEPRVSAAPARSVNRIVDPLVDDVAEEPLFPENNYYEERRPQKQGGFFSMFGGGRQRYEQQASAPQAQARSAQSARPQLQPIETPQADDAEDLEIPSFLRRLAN

Broadly, the Kd is the concentration at which binding is half-saturated. The low end stands for a tighter complex, the high end for a looser complex. For the substance MipZ-His6 (wild type) (enzyme), the Kd was found to be 11 µM.
